The assay addresses mini-procollagen III. The assay is described as follows: SPR. The settings on record: 50 nM CUB1CUB2*, read off a plot; for response: immobilized mini-procollagen III (437 RU), parent: est. 31; for percent of parent (% binding / WT): immobilized mini-procollagen III (437 and 651 RU), parent: est. 100.

Data on three substances can be found in PMC10696041.

Sequence of CUB1CUB2* domains of PCPE-2, WT (from MBP-CUB1CUB2, MBP removed) (Q9UKZ9 whole entry, looked up, stated change not applied, tested part not stated): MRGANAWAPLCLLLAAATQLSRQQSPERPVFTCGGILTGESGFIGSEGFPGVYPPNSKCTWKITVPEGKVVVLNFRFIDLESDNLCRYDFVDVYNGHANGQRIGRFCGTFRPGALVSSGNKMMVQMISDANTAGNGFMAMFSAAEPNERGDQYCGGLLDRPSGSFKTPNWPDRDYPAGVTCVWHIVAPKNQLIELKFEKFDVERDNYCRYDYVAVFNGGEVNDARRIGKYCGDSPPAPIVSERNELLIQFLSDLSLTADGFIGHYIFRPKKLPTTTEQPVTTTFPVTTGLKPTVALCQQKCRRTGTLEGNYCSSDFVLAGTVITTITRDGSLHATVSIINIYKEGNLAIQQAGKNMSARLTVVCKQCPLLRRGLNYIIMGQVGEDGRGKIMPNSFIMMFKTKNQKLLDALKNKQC

As for “CUB1CUB2* domains of PCPE-2, WT (from MBP-CUB1CUB2, MBP removed) (from UniProt Q9UKZ9) K46A; E197A; R220A”, the response amounted to 8.5 RU and the percent of parent (% binding / WT) turned out to be 22.
As for “CUB1CUB2* domains of PCPE-2, WT (from MBP-CUB1CUB2, MBP removed) (from UniProt Q9UKZ9) F87A”, the response came to 1 RU and the percent of parent (% binding / WT) turned out to be 2.
Take “CUB1CUB2* domains of PCPE-2, WT (from MBP-CUB1CUB2, MBP removed) (from UniProt Q9UKZ9) R150A”: the response was determined as 27 RU and the percent of parent (% binding / WT) was determined as 97.
